How the values were obtained:
CRD-BP WT [1] = target: T1, CRD-BP WT (mouse, UniProt O88477 1-577); experiment: fluorescence polarization; 10 nM oligo, 0-1000 nM protein; EMSA as in refs 21,22 (buffer not given; competitor preincubation 35 C); FP: binding buffer stock 10 mM Tris-HCl pH 7.4, 2.5 mM EDTA, 5% glycerol, 0.002% Triton X-100, 37 C 30 min; settings: protein: recombinant; (pET28b(+), Ni-NTA); label: 3' 6-FAM
CRD-BP WT [2] = target: T1, CRD-BP WT; experiment: fluorescence polarization; 10 nM RNA, 0-1000 nM protein; EMSA as in refs 21,22 (buffer not given; competitor preincubation 35 C); FP: binding buffer stock 10 mM Tris-HCl pH 7.4, 2.5 mM EDTA, 5% glycerol, 0.002% Triton X-100, 37 C 30 min; settings: protein: recombinant; (pET28b(+), Ni-NTA); label: 3' 6-FAM

T1 sequence (O88477 whole entry): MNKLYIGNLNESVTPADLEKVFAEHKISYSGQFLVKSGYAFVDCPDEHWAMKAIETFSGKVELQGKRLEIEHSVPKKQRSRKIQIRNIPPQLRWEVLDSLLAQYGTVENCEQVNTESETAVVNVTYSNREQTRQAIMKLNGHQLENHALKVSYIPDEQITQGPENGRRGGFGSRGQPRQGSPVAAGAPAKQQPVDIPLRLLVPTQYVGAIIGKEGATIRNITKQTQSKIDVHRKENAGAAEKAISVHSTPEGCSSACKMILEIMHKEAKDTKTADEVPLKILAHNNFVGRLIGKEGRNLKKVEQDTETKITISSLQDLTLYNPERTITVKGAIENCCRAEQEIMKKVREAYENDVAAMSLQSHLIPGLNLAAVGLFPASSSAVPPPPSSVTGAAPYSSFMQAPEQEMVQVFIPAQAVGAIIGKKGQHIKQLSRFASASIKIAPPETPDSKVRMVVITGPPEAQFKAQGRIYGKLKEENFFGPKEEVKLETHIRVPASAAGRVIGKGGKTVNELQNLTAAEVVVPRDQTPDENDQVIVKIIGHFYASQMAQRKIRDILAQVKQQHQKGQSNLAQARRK

Binder | binding result (CRD-BP WT [1]) | binding result (CRD-BP WT [2])
ATTCAGTTCACAGATACTGCAC (ssDNA) [MHO-7_FL] | no binding | 
AAAUUAGGGCCCAAUUAAUAAUCAGCAAGAAUUUGAUCG (ssRNA) [FL-CD44 RNA] |  | binds
TAAAAATCTCAAATCAAGTTTC (ssDNA) [MHO-1_FL] | no binding | 

Source: PMC5300761, “Characterizing the Coding Region Determinant-Binding Protein (CRD-BP)-Microphthalmia-associated Transcription Factor (MITF) mRNA interaction”
